# Source: US20150297748A1 (Daiichi Sankyo, published 2015)
# T1: human B7-H3 variant 1 (human, UniProt Q5ZPR3 27-534)
# T1 sequence: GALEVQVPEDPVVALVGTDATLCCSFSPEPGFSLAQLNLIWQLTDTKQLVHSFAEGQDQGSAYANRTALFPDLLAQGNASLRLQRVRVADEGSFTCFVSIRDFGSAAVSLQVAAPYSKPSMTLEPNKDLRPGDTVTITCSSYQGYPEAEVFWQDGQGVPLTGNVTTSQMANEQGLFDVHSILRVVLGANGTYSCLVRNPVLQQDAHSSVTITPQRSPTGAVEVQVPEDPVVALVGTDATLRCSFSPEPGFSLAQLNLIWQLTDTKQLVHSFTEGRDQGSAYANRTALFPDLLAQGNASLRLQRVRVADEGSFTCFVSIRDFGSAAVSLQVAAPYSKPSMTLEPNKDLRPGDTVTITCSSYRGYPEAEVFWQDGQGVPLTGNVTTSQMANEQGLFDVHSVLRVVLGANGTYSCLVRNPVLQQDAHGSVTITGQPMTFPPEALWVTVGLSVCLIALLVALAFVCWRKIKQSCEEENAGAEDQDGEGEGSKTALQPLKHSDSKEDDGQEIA
# T2: CD30 (UniProt P28908 19-595, limits assumed)
# T2 sequence (looked up): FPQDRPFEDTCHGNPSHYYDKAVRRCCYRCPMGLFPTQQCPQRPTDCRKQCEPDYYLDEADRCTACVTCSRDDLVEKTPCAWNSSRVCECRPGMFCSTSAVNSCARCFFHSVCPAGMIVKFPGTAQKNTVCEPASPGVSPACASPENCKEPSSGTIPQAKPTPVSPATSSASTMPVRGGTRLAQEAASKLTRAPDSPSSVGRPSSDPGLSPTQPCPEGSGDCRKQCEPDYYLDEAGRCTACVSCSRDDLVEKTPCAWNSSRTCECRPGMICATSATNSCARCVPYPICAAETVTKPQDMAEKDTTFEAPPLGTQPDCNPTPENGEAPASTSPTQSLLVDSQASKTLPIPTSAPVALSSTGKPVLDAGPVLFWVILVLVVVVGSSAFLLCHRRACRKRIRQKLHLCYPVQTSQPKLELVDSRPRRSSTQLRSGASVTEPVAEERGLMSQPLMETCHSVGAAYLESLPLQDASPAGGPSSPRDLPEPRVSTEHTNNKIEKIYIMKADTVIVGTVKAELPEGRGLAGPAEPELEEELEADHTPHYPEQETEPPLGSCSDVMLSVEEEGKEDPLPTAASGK
# T3: CD70 (UniProt P32970 1-193, limits assumed)
# T3 sequence (looked up): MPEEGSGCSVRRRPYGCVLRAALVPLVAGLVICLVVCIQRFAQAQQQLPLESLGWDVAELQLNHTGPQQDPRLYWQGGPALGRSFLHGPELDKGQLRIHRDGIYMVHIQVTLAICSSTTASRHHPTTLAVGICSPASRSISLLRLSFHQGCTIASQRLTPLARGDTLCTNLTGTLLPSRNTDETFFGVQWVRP
# B1: Antibody-drug conjugate (5) (antibody, human IgG1, kappa, V domains shown)
# VH: QVQLVQSGAEVKKPGSSVKVSCKASGYTFTNYVMHWVRQAPGQGLEWMGYINPYNDDVKYNEKFKGRVTITADESTSTAYMELSSLRSEDTAVYYCARWGYYGSPLYYFDYWGQGTLVTVSS
# VL: EIVLTQSPATLSLSPGERATLSCRASSRLIYMHWYQQKPGQAPRPLIYATSNLASGIPARFSGSGSGTDFTLTISSLEPEDFAVYYCQQWNSNPPTFGQGTKVEIKR
# modifications: drug-linker 6-maleimidohexanoyl-GGFG-NH-(CH2)3-C(=O)-exatecan (compound of Process 3 of Example 2) on cysteines of the reduced hinge disulfide bonds; average 6.7 per antibody molecule; positions not given
# B2: Antibody-drug conjugate (16) (antibody, human IgG1, kappa, V domains shown)
# VH: B1 VH
# VL: B1 VL
# modifications: drug-linker 3-maleimidopropanoyl-NH-(CH2CH2O)2-CH2CH2-C(=O)-GGFG-NH-(CH2)3-C(=O)-exatecan (compound of Process 1 of Example 14) on cysteines of the reduced hinge disulfide bonds; average 6.5 per antibody molecule; positions not given
# B3: Antibody-drug conjugate (21) (antibody, human IgG1, kappa, V domains shown)
# VH: B1 VH
# VL: B1 VL
# modifications: drug-linker 3-maleimidopropanoyl-NH-(CH2CH2O)2-CH2CH2-C(=O)-GGFG-NH-(CH2)3-C(=O)-exatecan (compound of Process 1 of Example 14) on cysteines of the reduced hinge disulfide bonds; average 5.5 per antibody molecule; positions not given
# B4: Antibody-drug conjugate (54) (antibody, human IgG1, kappa, V domains shown)
# VH: B1 VH
# VL: B1 VL
# modifications: drug-linker 6-maleimidohexanoyl-GGFG-NH-(CH2)5-C(=O)-exatecan (compound of Process 5 of Example 54) on cysteines of the reduced hinge disulfide bonds; average 3.0 per antibody molecule; positions not given
# B5: Antibody-drug conjugate (32) (antibody, human IgG1, kappa, V domains shown)
# VH: B1 VH
# VL: B1 VL
# modifications: drug-linker from N-(bromoacetyl)-beta-alanyl-GGFG-NH-(CH2)3-C(=O)-exatecan (compound of Process 3 of Example 30) on cysteines of the reduced hinge disulfide bonds; average 6.0 per antibody molecule; positions not given
# B6: Antibody-drug conjugate (44) (antibody, human IgG1, kappa, V domains shown)
# VH: B1 VH
# VL: B1 VL
# modifications: drug-linker 6-maleimidohexanoyl-GGFG-NH-CH2CH2-O-CH2-C(=O)-exatecan (compound of Process 3 of Example 43) on cysteines of the reduced hinge disulfide bonds; average 6.6 per antibody molecule; positions not given
# B7: Antibody-drug conjugate (52) (antibody, human IgG1, kappa, V domains shown)
# VH: B1 VH
# VL: B1 VL
# modifications: drug-linker 6-maleimidohexanoyl-GGFG-NH-(CH2)5-C(=O)-exatecan (compound of Process 5 of Example 54) on cysteines of the reduced hinge disulfide bonds; average 3.1 per antibody molecule; positions not given
# B8: Antibody-drug conjugate (45) (antibody, human IgG1, kappa, V domains shown)
# VH: B1 VH
# VL: B1 VL
# modifications: drug-linker 6-maleimidohexanoyl-GGFG-NH-CH2CH2-O-CH2-C(=O)-exatecan (compound of Process 3 of Example 43) on cysteines of the reduced hinge disulfide bonds; average 3.7 per antibody molecule; positions not given
# B9: Antibody-drug conjugate (46) (antibody, human IgG1, kappa, V domains shown)
# VH: B1 VH
# VL: B1 VL
# modifications: drug-linker 6-maleimidohexanoyl-GGFG-NH-CH2CH2-O-CH2-C(=O)-exatecan (compound of Process 3 of Example 43) on cysteines of the reduced hinge disulfide bonds; average 5.2 per antibody molecule; positions not given
# B10: Antibody-drug conjugate (6) (antibody, human IgG1, kappa, V domains shown)
# VH: QIQLQQSGPEVVKPGASVKISCKASGYTFTDYYITWVKQKPGQGLEWIGWIYPGSGNTKYNEKFKGKATLTVDTSSSTAFMQLSSLTSEDTAVYFCANYGNYWFAYWGQGTQVTVSA
# VL: DIVLTQSPASLAVSLGQRATISCKASQSVDFDGDSYMNWYQQKPGQPPKVLIYAASNLESGIPARFSGSGSGTDFTLNIHPVEEEDAATYYCQQSNQDPWTFGGGTKLEIKR
# modifications: drug-linker 6-maleimidohexanoyl-GGFG-NH-(CH2)3-C(=O)-exatecan (compound of Process 3 of Example 2) on cysteines of the reduced hinge disulfide bonds; average 3.3 per antibody molecule; positions not given
# B11: Antibody-drug conjugate (22) (antibody, V domains shown)
# VH: B10 VH
# VL: B10 VL
# modifications: drug-linker 3-maleimidopropanoyl-NH-(CH2CH2O)2-CH2CH2-C(=O)-GGFG-NH-(CH2)3-C(=O)-exatecan (compound of Process 1 of Example 14) on cysteines of the reduced hinge disulfide bonds; average 2.5 per antibody molecule; positions not given
# B12: Antibody-drug conjugate (7) (antibody, V domains shown)
# VH: B10 VH
# VL: B10 VL
# modifications: drug-linker 6-maleimidohexanoyl-GGFG-NH-(CH2)3-C(=O)-exatecan (compound of Process 3 of Example 2) on cysteines of the reduced hinge disulfide bonds; average 3.8 per antibody molecule; positions not given
# B13: Antibody-drug conjugate (65) (antibody, V domains shown)
# VH: B10 VH
# VL: B10 VL
# modifications: drug-linker 6-maleimidohexanoyl-GGFG-NH-CH2-O-CH2-C(=O)-exatecan (compound of Process 8 of Example 58) on cysteines of the reduced hinge disulfide bonds; average 6.8 per antibody molecule; positions not given
# B14: Antibody-drug conjugate (23) (antibody, V domains shown)
# VH: B10 VH
# VL: B10 VL
# modifications: drug-linker 3-maleimidopropanoyl-NH-(CH2CH2O)2-CH2CH2-C(=O)-GGFG-NH-(CH2)3-C(=O)-exatecan (compound of Process 1 of Example 14) on cysteines of the reduced hinge disulfide bonds; average 7.1 per antibody molecule; positions not given
# B15: Antibody-drug conjugate (64) (antibody, V domains shown)
# VH: B10 VH
# VL: B10 VL
# modifications: drug-linker 6-maleimidohexanoyl-GGFG-NH-CH2-O-CH2-C(=O)-exatecan (compound of Process 8 of Example 58) on cysteines of the reduced hinge disulfide bonds; average 3.7 per antibody molecule; positions not given
# B16: Antibody-drug conjugate (38) (antibody, V domains shown)
# VH: B10 VH
# VL: B10 VL
# modifications: drug-linker from the N-succinimidyl ester of suberoyl-GGFG-NH-(CH2)3-C(=O)-exatecan (compound of Process 1 of Example 37); average 2.7 per antibody molecule; chain and positions not stated
# B17: Antibody-drug conjugate (8) (antibody, V domains shown)
# VH: EVQLVQSGAEVKKPGSSVKVSCKASGYTITDSNIHWVRQAPGQSLEWIGYIYPYNGGTDYNQKFKNRATLTVDNPTNTAYMELSSLRSEDTAFYYCVNGNPWLAYWGQGTLVTVSS
# VL: DIQLTQSPSTLSASVGDRVTITCRASQSLDNYGIRFLTWFQQKPGKAPKLLMYAASNQGSGVPSRFSGSGSGTEFTLTISSLQPDDFATYYCQQTKEVPWSFGQGTKVEVKR
# modifications: drug-linker 6-maleimidohexanoyl-GGFG-NH-(CH2)3-C(=O)-exatecan (compound of Process 3 of Example 2) on cysteines of the reduced hinge disulfide bonds; average 3.4 per antibody molecule; positions not given
# B18: Antibody-drug conjugate (25) (antibody, V domains shown)
# VH: B17 VH
# VL: B17 VL
# modifications: drug-linker 3-maleimidopropanoyl-NH-(CH2CH2O)2-CH2CH2-C(=O)-GGFG-NH-(CH2)3-C(=O)-exatecan (compound of Process 1 of Example 14) on cysteines of the reduced hinge disulfide bonds; average 7.3 per antibody molecule; positions not given
# B19: Antibody-drug conjugate (9) (antibody, V domains shown)
# VH: B17 VH
# VL: B17 VL
# modifications: drug-linker 6-maleimidohexanoyl-GGFG-NH-(CH2)3-C(=O)-exatecan (compound of Process 3 of Example 2) on cysteines of the reduced hinge disulfide bonds; average 3.7 per antibody molecule; positions not given
# B20: Antibody-drug conjugate (10) (antibody, V domains shown)
# VH: QVQLVQSGAEVKKPGASVKVSCKASGYTFTNYGMNWVRQAPGQGLKWMGWINTYTGEPTYADAFKGRVTMTRDTSISTAYMELSRLRSDDTAVYYCARDYGDYGMDYWGQGTTVTVSS
# VL: DIVMTQSPDSLAVSLGERATINCRASKSVSTSGYSFMHWYQQKPGQPPKLLIYLASNLESGVPDRFSGSGSGTDFTLTISSLQAEDVAVYYCQHSREVPWTFGQGTKVEIKR
# modifications: drug-linker 6-maleimidohexanoyl-GGFG-NH-(CH2)3-C(=O)-exatecan (compound of Process 3 of Example 2) on cysteines of the reduced hinge disulfide bonds; average 3.2 per antibody molecule; positions not given
# B21: Antibody-drug conjugate (11) (antibody, V domains shown)
# VH: B20 VH
# VL: B20 VL
# modifications: drug-linker 6-maleimidohexanoyl-GGFG-NH-(CH2)3-C(=O)-exatecan (compound of Process 3 of Example 2) on cysteines of the reduced hinge disulfide bonds; average 3.6 per antibody molecule; positions not given
# B22: M30 antibody (antibody, mouse IgG2a, kappa, V domains shown)
# VH: EVQLQQSGPELVKPGASVKMSCKASGYTFTNYVMHWVKQKPGQGLEWIGYINPYNDDVKYNEKFKGKATQTSDKSSSTAYMELSSLTSEDSAVYYCARWGYYGSPLYYFDYWGQGTTLTVSS
# VL: QIVLSQSPTILSASPGEKVTMTCRASSRLIYMHWYQQKPGSSPKPWIYATSNLASGVPARFSGSGSGTSYSLTISRVEAEDAATYYCQQWNSNPPTFGTGTKLELKR
# notes: Mouse monoclonal antibody produced by the B7-H3 hybridoma M30
# Target: T1, human B7-H3 variant 1
# Assay: cell-based or functional assay
row,Binder,"IC50, cytotoxic activity against the CEM_V1-3.1-2 cells [nM]"
1,B1,< 0.1
2,B2,< 0.1
3,B3,< 0.1
4,B4,< 0.1
5,B5,< 0.1
6,B6,< 0.1
7,B7,< 0.1
8,B8,< 0.1
9,B9,< 0.1

# Target: T2, CD30
# Assay: cell-based or functional assay
row,Binder,"IC50, cytotoxic activity against the SR cells [nM]"
1,B10,< 0.01
2,B11,< 0.1
3,B12,< 0.01
4,B13,< 0.01
5,B14,< 0.01
6,B15,< 0.01
7,B16,< 0.01

# Target: CD33 (UniProt P20138 18-364, limits assumed)
# Sequence (P20138 18-364 limits assumed): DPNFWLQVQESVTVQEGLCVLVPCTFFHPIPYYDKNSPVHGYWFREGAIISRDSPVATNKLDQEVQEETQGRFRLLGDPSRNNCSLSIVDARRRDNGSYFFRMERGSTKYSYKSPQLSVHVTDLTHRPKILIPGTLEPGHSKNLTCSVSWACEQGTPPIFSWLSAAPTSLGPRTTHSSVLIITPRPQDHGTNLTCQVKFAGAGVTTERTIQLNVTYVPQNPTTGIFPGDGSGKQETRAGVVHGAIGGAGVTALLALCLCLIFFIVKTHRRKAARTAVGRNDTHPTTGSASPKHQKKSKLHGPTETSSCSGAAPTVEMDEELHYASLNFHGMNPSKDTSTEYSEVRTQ
# Assay: cell-based or functional assay
Binder,"IC50, cytotoxic activity against the HL-60 cells [nM]","IC50, cytotoxic activity against the NOMO-1 cells [nM]"
B17,< 0.1,–
B18,–,< 0.1
B19,< 0.1,–

# Target: T3, CD70
# Assay: cell-based or functional assay
row,Binder,"IC50, cytotoxic activity against the U251 cells [nM]"
1,B20,< 1
2,B21,< 1

# Target: T1, human B7-H3 variant 1
# Assay: flow cytometry: 10 µg/mL M30 on CCRF-CEM clones transfected with pcDNA3.1-B7-H3, detected with fluorescein-conjugated goat anti-mouse IgG
# Procedure: Flow cytometry was used for confirming B7-H3 expression in each recovered clone. Specifically, each recovered clone was washed twice with PBS containing 5% FBS, thereafter suspended by the addition of PBS containing 5% FBS and 10 μg/mL M30, and left standing at 4° C. for 30 minutes. The clone was washed twice with PBS containing 5% FBS, thereafter suspended by the addition of Fluorescein-conjugated goat IgG fraction to mouse IgG (Whole Molecule) (455493, manufactured by ICN Pharmaceuticals, Inc.) diluted 1000-fold with PBS containing 5% FBS, and left standing at 4° C. for 30 minutes. The clone was washed twice with PBS containing 5% FBS, thereafter resuspended in PBS containing 5% FBS, and detected by using a flow cytometer (FC500: Beckman Coulter, Inc.).
row,Binder,binding result
1,B22,binds
